Consider seven molecules from patent US20210403579A1 (DELINIA, published 2021).

One assay deals with T1, Human ST2 (human, UniProt Q01638 19-328, limits assumed).
T1 construct: also called human ST2 protein; Interleukin 1 receptor-like 1
T1 sequence (looked up): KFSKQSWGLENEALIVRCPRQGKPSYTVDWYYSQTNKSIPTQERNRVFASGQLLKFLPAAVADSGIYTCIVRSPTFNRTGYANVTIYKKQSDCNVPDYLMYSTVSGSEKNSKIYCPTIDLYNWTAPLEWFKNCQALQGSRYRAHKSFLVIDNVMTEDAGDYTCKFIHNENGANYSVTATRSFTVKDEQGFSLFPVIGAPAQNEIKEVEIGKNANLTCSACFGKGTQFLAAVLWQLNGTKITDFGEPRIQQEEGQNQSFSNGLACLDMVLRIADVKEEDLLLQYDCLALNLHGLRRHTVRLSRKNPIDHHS
Briefly: SPR (Carterra), antibody immobilized, ST2 analyte, 1:1. The method, then: (§1) Binding of the reformatted human ST2 antibodies to the human and mouse ST2 proteins was evaluated by surface plasmon resonance (SPR), using a high throughput antibody screening and characterization platform from Carterra (Salt Lake City, Utah).

For a further assay, the target named is T2, Mouse ST2 (mouse, UniProt P14719 27-332, limits assumed).
T2 construct: also called mouse ST2 protein
T2 sequence (looked up): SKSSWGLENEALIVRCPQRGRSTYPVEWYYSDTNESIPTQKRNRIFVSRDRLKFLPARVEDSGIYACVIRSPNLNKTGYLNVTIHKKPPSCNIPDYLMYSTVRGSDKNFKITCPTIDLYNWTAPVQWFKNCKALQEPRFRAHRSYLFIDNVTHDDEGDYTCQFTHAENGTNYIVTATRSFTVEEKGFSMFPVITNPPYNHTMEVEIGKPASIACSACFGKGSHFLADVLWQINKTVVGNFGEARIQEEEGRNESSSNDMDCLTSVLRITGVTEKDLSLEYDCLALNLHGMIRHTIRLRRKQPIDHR
The description is as above. The method, then:
as §1

B1: Human ST2 IgG1 Antibody 107 (antibody, V domains shown)
VH: QVQLVQSGAQVKKPGASVKVSCKASGGTFSSYTISWVRQAPGQGLEWMGVIYPSGDITVYAQEFQGRVTMTRDTSTSTVYMELSSLRSEDTAVYYCARAWARYFDYWGQGTLVTVSS
VL: DIQMTQSPSSLSASVGDRVTITCQASQDISNYLNWYQQKPGKAPKLLIYDASNLQAGVPSRFSGSGSGTDFTLTISSLQPEDFATYYCQQSYSSPITFGQGTRLEIKR
notes: IgG1, kappa
In the assay with Human ST2, B1 gave a Kd of 465 nM, a koff of 0.062 s⁻¹ and a kon of 130000 M⁻¹ s⁻¹.

B2: Human ST2 IgG1 Antibody 102 (antibody, V domains shown)
VH: QVQLVQSGAEVKKPGSSVKVSCKASGYIFTRYYVNWVRQAPGQGLEWMGGIIPMFGTSNYAQKFQGRVTITADESTSTAYMELSSLRSEDTAVYYCARSSGYDSFKIDYWGQGTLVTVSS
VL: not shown
notes: IgG1, kappa
In the assay with Human ST2, B2 gave a Kd of 270 nM, a koff of 0.065 s⁻¹ and a kon of 240000 M⁻¹ s⁻¹.

B3: Human ST2 IgG1 Antibody 106 (antibody, V domains shown)
VH: QVQLVQSGAEVKKPGSSVKVSCKASGYTFTDYYIHWVRQAPGQGLEWMGGIIPIYGTANYAQKFQGRVTITADESTSTAYMELSSLRSEDTAVYYCARTNWGMDVWGQGTTVTVSS
VL: EIVMTQSPATLSVSPGERATLSCRASQGIPSNSLAWYQQKPGQAPRLLIYGTSARASGIPARFSGSGSGTEFTLTISSLQSEDFAVYYCQQYYSTPWTFGQGTKVEIKR
notes: IgG1, kappa
In the assay with Human ST2, B3 came in with a Kd of 616 nM, a dissociation rate constant (koff) of 0.15 s⁻¹ and a kon of 240000 M⁻¹ s⁻¹.

B4: Human ST2 IgG1 Antibody 103 (antibody, V domains shown)
VH: QVQLVQSGAEVKKPGASVKVSCKASGYTFTSYYMHWVRQAPGQGLEWMGWMNPNSGNTGYAQKFQGRVTMTRDTSTSTVYMELSSLRSEDTAVYYCARETSFDYYYGMDVWGQGTTVTVSS
VL: DIQMTQSPSSLSASVGDRVTITCRASQSISNWLAWYQQKPGKAPKLLIYDGSNLGTGVPSRFSGSGSGTDFTLTISSLQPEDFATYYCLQDFTYPLTFGGGTKVEIKR
notes: IgG1, kappa; also called ST2 Antibody 103
In the assay with Mouse ST2, B4 yielded a Kd of 211 nM, a koff of 0.0058 s⁻¹ and a kon of 27000 M⁻¹ s⁻¹. In the assay with Human ST2, this molecule yielded a Kd of 140 nM, a koff of 0.0063 s⁻¹ and a kon of 45000 M⁻¹ s⁻¹.

B5: Human ST2 IgG1 Antibody 99 (antibody, V domains shown)
VH: EVQLLESGGGLVQPGGSLRLSCAASGFTFSDYYMNWVRQAPGKGLEWVSTISGFGESTFYADSVKGRFTISRDNSKNTLYLQMNSLRAEDTAVYYCARLGAARAFDIWGQGTTVTVSS
VL: DIQMTQSPSSLSASVGDRVTITCRASQSIGSWMAWYQQKPGKAPKLLIYAASTLQSGVPSRFSGSGSGTDFTLTISSLQPEDFATYYCQQSYTTPITFGPGTKVDIKR
notes: IgG1, kappa; also called ST2 Antibody 99
Turning to B5, in the assay with Mouse ST2, the Kd is 419 nM, the koff is 0.098 s⁻¹ and the kon is 230000 M⁻¹ s⁻¹.

B6: Human ST2 IgG1 Antibody 108 (antibody, V domains shown)
VH: QVQLVQSGAEVKKPGASVKVSCKASGNTFTAYYMHWVRQAPGQGLEWMGIINPSGGSTSYAQKFQGRVTMTRDTSTSTVYMELSSLRSEDTAVYYCARGVGATNYWGQGTLVTVSS
VL: DIQMTQSPSSLSASVGDRVTITCRASQGISNNLNWYQQKPGKAPKLLIYAASSLQSGVPSRFSGSGSGTDFTLTISSLQPEDFATYYCQQGFNFPLTFGGGTKVEIKR
notes: IgG1, kappa; also called ST2 Antibody 108
Consider B6, for which, in the assay with Human ST2, the dissociation constant (Kd) is 28 nM, the off-rate constant (koff) came out at 0.0056 s⁻¹ and the kon amounted to 200000 M⁻¹ s⁻¹.

B7: Human ST2 IgG1 Antibody 101 (antibody, V domains shown)
VH: QVQLVQSGAEVKKPGASVKVSCKASGYTFSTYDINWVRQAPGQGLEWVGIISPSGGWTTYAQKFQGRVTMTRDTSTSTVYMELSSLRSEDTAVYYCARVNYDILTGQGRGYYFDYWGQGTLVTVSS
VL: DIQMTQSPSSLSASVGDRVTITCQATQDIADYLNWYQQKPGKAPKLLIYKASSLESGVPSRFSGSGSGTDFTLTISSLQPEDFATYYCQQSYSTPTFGPGTKVDIKR
notes: IgG1, kappa; also called ST2 Antibody 101
In the assay with Human ST2, B7 came in with an equilibrium dissociation constant (Kd) of 590 nM, a koff of 0.11 s⁻¹ and an on-rate constant (kon) of 190000 M⁻¹ s⁻¹.
